Data from US20110306550A1.

Target: cellular receptor for the apoE peptide (not named), on cells
Assay: competition binding on cells (250,000 cells per well, 4 C); competitor/tracer biotinylated apoE 133-149, detected with 125I-streptavidin

Binder: LRVRLASHLRKLRKRLL [COG133 (apoE 133-149 peptide), unlabeled]
- IC50: 4 µM
